From patent US20220089678A1 (CARTESIAN THERAPEUTICS, published 2022)
Numbering of substitutions follows the chain as printed.

T1: phycoerythrin (PE)-conjugated BCMA (Recombinant Human TNFRSF17 protein, Fc/His-tagged, R-PE labeled); Creative … (human, UniProt Q02223 1-54, R-PE labeled)
T1 construct: Bought reagent; also called BCMA-PE; not shown: Fc/His tag of the bought reagent
T1 sequence: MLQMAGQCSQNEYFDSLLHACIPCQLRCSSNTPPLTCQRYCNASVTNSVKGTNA

T2: human BCMA on cells (human, UniProt Q02223 1-184)
T2 sequence: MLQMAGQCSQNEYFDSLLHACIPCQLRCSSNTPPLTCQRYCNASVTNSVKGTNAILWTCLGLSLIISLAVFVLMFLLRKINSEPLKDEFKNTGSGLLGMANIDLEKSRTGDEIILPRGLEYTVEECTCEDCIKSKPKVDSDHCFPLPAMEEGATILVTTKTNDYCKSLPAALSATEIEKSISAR

B1: CAR comprising scFv-Yi2 (SEQ ID NO: 55) (other)
chain: DIQLTQSPSSLSASVGDRVTITCRASQSVTILGSHLIHWYQQKPGKAPKLLIQLASNVQTGVPSRFSGSGSGTDFTLTISSLQPEDVATYYCLQSRTIPRTFGQGTKLEIKGSTSGSGKPGSGEGSTKGQVQLVQSGGGLVQPGRSVKLSCAASGYTFTDYSINWVRQAPGKGLEWVGWINTETREPAYAYDFRGRFTISRDTSKNTAYLQMNSLRAEDTAVYYCARDYSYAMDYWGQGTLVTVSS
notes: CAR on mRNA-electroporated human CD8+ T cells; Only the scFv is identified; not shown: rest of the CAR (hinge, transmembrane, cytoplasmic domains) not specified for this construct
B2: CAR comprising scFv-1′ (SEQ ID NO: 62) (other)
chain: DIVLTQSPSSLSASVGDRATISCRASESVTILGSHLIHWYQQKPGQAPKLLIQLASNVQTGVPARFSGSGSGTDFTLTISSVEPEDVAVYYCLQSRTIPRTFGQGTKVEIKGSTSGSGKPGSGEGSTKGQIQLVQSGPELKKPGGSVKISCAASGYTFTSYDINWVRQAPGKGLEWVGWINTETREPAYAYDFRGRFTFSADTSKSTAYLQMNSLRAEDTAVYYCALDYSYAMDYWGQGTLVTVSS
notes: as for B1
B3: CAR comprising scFv-11′ (SEQ ID NO: 67) (other)
chain: B2 chain with E183N, R185G, E186N, A188T, Y191Q, D192G, R194T, S230T, A232G
notes: as for B1
B4: CAR comprising scFv-8′ (SEQ ID NO: 64) (other)
chain: DIVLTQSPSSLSASVGDRATISCRASESVSFLGINLIHWYQQKPGQAPKLLIYSASNLQSGVPARFSGSGSGTDFTLTISSVEPEDVAVYYCLQSRTLPRTFGQGTKVEIKGSTSGSGKPGSGEGSTKGQIQLVQSGPELKKPGGSVKISCAASGYTFTDYSINWVRQAPGKGLEWVGWINTETREPAYAYDFRGRFTFSADTSKSTAYLQMNSLRAEDTAVYYCALDYSYAMDYWGQGTLVTVSS
notes: as for B1
B5: CAR comprising scFv-9′ (SEQ ID NO: 65) (other)
chain: B4 chain with R96K, T97N, L98F
notes: as for B1
B6: CAR comprising scFv-Yi1 (SEQ ID NO: 54) (other)
chain: B2 chain with E85D, Q104G, V108L, S160D, D162S, R167K, A201L
notes: CAR on mRNA-electroporated human CD8+ T cells; not shown: rest of the CAR (hinge, transmembrane, cytoplasmic domains) not specified for this construct
B7: CAR comprising scFv-Y33 (SEQ ID NO: 58) (other)
chain: B2 chain with Q135E, P138A, L140V, S160D, D162S, R167K, A201L
notes: as for B1
B8: CAR comprising scFv-12′ (SEQ ID NO: 68) (other)
chain: B2 chain with R96K, T97N, I98F, S230L, A232S, M233L, Y235F
notes: as for B1
B9: CAR comprising scFv-4′ (SEQ ID NO: 63) (other)
chain: B2 chain with S160D, D162S, S230T, A232G
notes: as for B1
B10: CAR comprising scFv-Y31 (SEQ ID NO: 56) (other)
chain: B2 chain with S160D, D162S, R167K
notes: as for B1
B11: CAR comprising scFv-Y34 (SEQ ID NO: 59) (other)
chain: B2 chain with Q135E, P138A, L140V, I149V, A152K, S160D, D162S, T198A, F199I, D202E
notes: as for B1
B12: CAR comprising scFv-10′ (SEQ ID NO: 66) (other)
chain: B2 chain with D162S, Y191Q, D192G, R194T, S230L, A232S, M233L, Y235F
notes: as for B1
B13: CAR comprising scFv-CAS2 (C2) (SEQ ID NO: 61) (other)
chain: DIVLTQSPASLAVSPGQRATISCRASESVTILGSHLIHWYQQKPGQPPKLLIQLASNVQTGVPARFSGSGSRTDFTLTISSLEPEDVAVYYCLQSRTIPRTFGQGTKVEIKGSTSGSGKPGSGEGSTKGQITLKESGPTLVKPTQTLTLSCKASGYTFTDYSINWVRRAPGKGLEWMGWINTETREPAYAYDFRGRFVFSLDTSVSMAYLQISSLKAEDTAVYYCALDYSYAMDYWGQGTLVTVSS
notes: as for B1
B14: CAR comprising scFv-J2 (SEQ ID NO: 50) (other)
chain: DIVLTQSPASLAVSLGERATISCRASESVSILGSHLLHWYQQKPGQPPKLLIYLASNLQTGVPARFSGSGSGTDFTLTISSLEAEDVAVYYCLQSRTIPRTFGQGTKLEIKGSTSGSGKPGSGEGSTKGQIQLVQSGAEVKKPGASVKISCKASGYTFTDYSINWVRQAPGQGLEWMGWINTETREPAYAYDFRGRVTMTRDTSASTAYLQISSLKAEDTAVYFCALDYSYAMDYWGQGSLVTVSS
notes: as for B1
B15: CAR comprising scFv-J5 (SEQ ID NO: 53) (other)
chain: DIVLTQSPASLAVSLGERATISCRASESVSILGSHYLAWYQQKPGQPPKLLIYLASNLQTGVPARFSGSGSGTDFTLTISSLEAEDVAVYYCQQSRTIPRTFGQGTKLEIKGSTSGSGKPGSGEGSTKGQIQLVQSGAEVKKPGESVKISCKASGYTFTDYSINWVRQAPGQGLKWMGWINTETREPAYAYDFRGRFAFSLDTSASTAYLQISSLKAEDTAVYFCALDYSYAMDYWGQGTLVTVSS
notes: as for B1
B16: CAR comprising scFv-J1 (SEQ ID NO: 49) (other)
chain: DIVMTQSPDSLSVSLGERATINCRASESVTILGSHLIHWYQQKPGQPPKLLIQLASNVQTGVPDRFSGSGSGTDFTLTISSLQAEDVAVYYCLQSRTIPRTFGGGTKVEIKGSTSGSGKPGSGEGSTKGQIQLVQSGAEVKKPGASVKISCKASGYTFTDYSINWVRQAPGQGLEWMGWINTETREPAYAYDFRGRVTMTRDTSASTAYLQISSLKAEDTAVYFCALDYSYAMDYWGQGSLVTVSS
notes: as for B1
B17: CAR comprising scFv-J3 (SEQ ID NO: 51) (other)
chain: B14 chain with E17K, S30T, L37I, L58V, I131V
notes: as for B1
B18: CAR comprising scFv-J4 (SEQ ID NO: 52) (other)
chain: B16 chain with A145E, E175K, V197F, T198A, M199F, T200S, R201L, S240T
notes: as for B1

How the values were obtained:
[1] = molecular target: T1, phycoerythrin (PE)-conjugated BCMA …; test: flow cytometry; CAR T cells stained with BCMA-PE, 3 days after electroporation
Protocol: (§1) CAR T cells obtained from the above-described process were tested for viability, CAR protein expression, BCMA binding, and cytotoxicity, i.e., the ability to kill BCMA+ myeloma (tumor) cells. Viability, CAR expression, and BCMA binding were determined by flow cytometry on a GUAVA® […]® 12HT Flow cytometer (EMD Millipore). To test viability, a sample of the CAR T cells was mixed with propidium iodide and run on the flow cytometer with electronic gating on fluorescence in the near infrared channel. To test CAR protein expression and BCMA binding, a sample of the CAR T cells was incubated with 0.4 ug/mL of phycoerythrin (PE)-conjugated BCMA (Recombinant Human TNFRSF17 protein, Fc/His-tagged, R-PE labeled; Creative Biomart, Shirley, N.Y.). CAR expression was assessed on the flow cytometer with electronic gating on fluorescence in the yellow channel to detect presence or absence of emission from BCMA-PE on CAR-positive and CAR-negative cells. BCMA binding was determined by measuring the intensity of fluorescence in the yellow channel to determine the relative quantity of BCMA-PE bound to labelled CAR-positive cells. For the viability, expression, and BCMA binding assays, CD8+ T cells electroporated without mRNA (CAR-negative T Cells) were tested as a parallel control.
Numerous CAR-encoding mRNA constructs were prepared using the mRNA construct of SEQ ID: 29 as a starting point (which encodes a CAR of sequence SEQ ID: 19 and comprises the scFv of sequence SEQ ID: 48). These constructs encoded the same or substantially the same amino acid residues in the scFv complementary-determining regions (CDRs) but varied with respect to the amino acid residues in the scFv framework regions. In making these variations, the experimenter's intent was to humanize the scFv framework regions without reducing BCMA-binding and tumor-killing properties of CAR T cells that express the CAR. For each of the mRNA constructs, CAR T cells were prepared by transfection into human CD8+ cells, substantially as described in Example 1. The CAR T cells made from each mRNA construct were then tested 3 days after electroporation for BCMA binding and/or tumor killing, as substantially described in Example 1.

[2] = molecular target: T2, human BCMA on cells; test: cell-based or functional assay
[3] = molecular target: T1, phycoerythrin (PE)-conjugated BCMA …; test: flow cytometry; CAR T cells stained with BCMA-PE, 3 days after electroporation; remark: listed apart in the source
Protocol: as §1
For each of the mRNA constructs, CAR T cells were prepared by transfection into human CD8+ cells, as described in Example 1. The CAR T cells made from each mRNA construct were then tested 3 days after electroporation for BCMA binding and tumor killing, as described in Example 1.

Binder | BCMA Binding (relative to SEQ ID: 48) [1] | Killing (% killed), Effector:target ratio of 1:2 [2] | BCMA Binding (arbitrary units) [3] | further results
B1 | 12 relative to SEQ ID: 48 = 100 | – | – | –
B2 | – | 3% | 189 arbitrary units | –
B3 | – | 0% | 310 arbitrary units | –
B4 | – | 26% | 496 arbitrary units | –
B5 | – | 86% | 173 arbitrary units | –
B6 | 141 relative to SEQ ID: 48 = 100 | – | – | BCMA Binding (relative to SEQ ID: 54) [1]: 100 relative to SEQ ID: 54 = 100
B7 | – | – | – | BCMA Binding (relative to SEQ ID: 54) [1]: 40 relative to SEQ ID: 54 = 100
B8 | – | 7% | 446 arbitrary units | –
B9 | – | 78% | 439 arbitrary units | –
B10 | – | – | – | BCMA Binding (relative to SEQ ID: 54) [1]: 58 relative to SEQ ID: 54 = 100
B11 | – | – | – | BCMA Binding (relative to SEQ ID: 54) [1]: 79 relative to SEQ ID: 54 = 100
B12 | – | 81% | 269 arbitrary units | –
B13 | – | – | – | BCMA Binding [1]: 34 relative (SEQ ID: 48 = 100)
B14 | 51 relative to SEQ ID: 48 = 100 | – | – | –
B15 | 103 relative to SEQ ID: 48 = 100 | – | – | –
B16 | 76 relative to SEQ ID: 48 = 100 | – | – | –
B17 | 54 relative to SEQ ID: 48 = 100 | – | – | –
B18 | 82 relative to SEQ ID: 48 = 100 | – | – | –
